Experimental findings from patent US8936925B2, “Reconstitution of 5-enolpyruvylshikimate-3-phosphate synthase activity by fragment complementation” (priority 2004, dated 2015) are described below.

The test system of the experiment is aroA gene-mutant E. coli strain AB2829. The experiment in a line: In vivo complementation: growth on solid M63 restrictive medium. In kind it is cell-based. Also on record: key: −: failed to grow; +: able to grow. To be noted: for complementation condition, C-terminal: C-terminal fragment alone; for complementation condition, N-terminal: N-terminal fragment alone. An excerpt:
The pKU2100 plasmid constructed as described above and corresponding pACYC1184 plasmid were introduced separately or together into the strain AB2829 deficient in E. coli aroA gene. Then, the strain was streaked on solid M63 restrictive medium and cultured overnight to determine the growth.
In order to test if EPSPS achieves fragment complementation after in vivo expression, genes encoding EPSPS N-terminal peptides were constructed into pACYC184, and genes encoding EPSPS C-terminal peptides were constructed into pBR322 (see the section Materials and Methods for the detailed construction method). Afterwards, these plasmids were introduced into aroA gene-mutant E. coli strain AB2829. EPSPS activity of the protein fragments encoded by these genes was determined by the growth of the strains on M63 restrictive medium.
The pACYC184 and pBR322 plasmids are able to be expressed in the same bacterial cell since they have replicons p15A and ColE1 respectively. In this regard, a pACYC184 plasmid was co-introduced into aroA gene-mutant E. coli strain AB2829 together with a corresponding pKU2100 plasmid, wherein the N-terminal peptide encoded by the pACYC184 plasmid and C-terminal peptide encoded by the pKU2100 plasmid are the two fragments divided at the same site from EPSPS. The resulting strains are streaked on M63 restrictive medium, and cultured at 37° C.
The pBR322 plasmids constructed in section 3.5 a and their relevant pACYC1184 plasmids constructed in section 3.5 b were introduced respectively or together into E. coli strain AB2829 deficient in aroA gene. Then the strains were streaked on solid M63 restrictive medium and cultured overnight to test the growth.

Regarding “C384: E. coli EPSPS C-terminal fragment, residue 384 to C-terminus (DHRMAMCFSLVALSDTPVTILDPKCTAKTFPDYFEQLARISQAA; UniProt P0A6D3 384-427, looked up, fragment)”, the “complementation condition, C-terminal” value is “−”.
In the case of “N31: E. coli EPSPS N-terminal fragment, N-terminus to residue 31 (MESLTLQPIARVDGTINLPGSKSVSNRALLL; UniProt P0A6D3 1-31, looked up, fragment)”, the “complementation condition, N-terminal” value is recorded as “−”.
On to “C377: E. coli EPSPS C-terminal fragment, residue 377 to C-terminus (AEIATYNDHRMAMCFSLVALSDTPVTILDPKCTAKTFPDYFEQLARISQAA; UniProt P0A6D3 377-427, looked up, fragment)”, for which the “complementation condition, C-terminal” value is “−”.
“C372: E. coli EPSPS C-terminal fragment, residue 372 to C-terminus (EKLNFAEIATYNDHRMAMCFSLVALSDTPVTILDPKCTAKTFPDYFEQLARISQAA; UniProt P0A6D3 372-427, looked up, fragment)”: the “complementation condition, C-terminal” value was “−”.

B1: C86: E. coli EPSPS C-terminal fragment, residue 86 to C-terminus (protein, UniProt P0A6D3 86-427, looked up, fragment)
chain: GALELFLGNAGTAMRPLAAALCLGSNDIVLTGEPRMKERPIGHLVDALRLGGAKITYLEQENYPPLRLQGGFTGGNVDVDGSVSSQFLTALLMTAPLAPEDTVIRIKGDLVSKPYIDITLNLMKTFGVEIENQHYQQFVVKGGQSYQSPGTYLVEGDASSASYFLAAAAIKGGTVKVTGIGRNSMQGDIRFADVLEKMGATICWGDDYISCTRGELNAIDMDMNHIPDAAMTIATAALFAKGTTTLRNIYNWRVKETDRLFAMATELRKVGAEVEEGHDYIRITPPEKLNFAEIATYNDHRMAMCFSLVALSDTPVTILDPKCTAKTFPDYFEQLARISQAA
Take B1: the “complementation condition, C-terminal” value is “−”.

B2: N184: E. coli EPSPS N-terminal fragment, N-terminus to residue 184 (protein, UniProt P0A6D3 1-184, looked up, fragment)
chain: MESLTLQPIARVDGTINLPGSKSVSNRALLLAALAHGKTVLTNLLDSDDVRHMLNALTALGVSYTLSADRTRCEIIGNGGPLHAEGALELFLGNAGTAMRPLAAALCLGSNDIVLTGEPRMKERPIGHLVDALRLGGAKITYLEQENYPPLRLQGGFTGGNVDVDGSVSSQFLTALLMTAPLAP
In the case of B2, the “complementation condition, N-terminal” value is on record as “−”.

B3: N85: E. coli EPSPS N-terminal fragment, N-terminus to residue 85 (protein, UniProt P0A6D3 1-85, looked up, fragment)
chain: MESLTLQPIARVDGTINLPGSKSVSNRALLLAALAHGKTVLTNLLDSDDVRHMLNALTALGVSYTLSADRTRCEIIGNGGPLHAE
In the case of B3, the “complementation condition, N-terminal” value is “−”.

B4: N165: E. coli EPSPS N-terminal fragment, N-terminus to residue 165 (protein, UniProt P0A6D3 1-165, looked up, fragment)
chain: MESLTLQPIARVDGTINLPGSKSVSNRALLLAALAHGKTVLTNLLDSDDVRHMLNALTALGVSYTLSADRTRCEIIGNGGPLHAEGALELFLGNAGTAMRPLAAALCLGSNDIVLTGEPRMKERPIGHLVDALRLGGAKITYLEQENYPPLRLQGGFTGGNVDVD
As to B4, the “complementation condition, N-terminal” value is “−”.

B5: C185: E. coli EPSPS C-terminal fragment, residue 185 to C-terminus (protein, UniProt P0A6D3 185-427, looked up, fragment)
chain: EDTVIRIKGDLVSKPYIDITLNLMKTFGVEIENQHYQQFVVKGGQSYQSPGTYLVEGDASSASYFLAAAAIKGGTVKVTGIGRNSMQGDIRFADVLEKMGATICWGDDYISCTRGELNAIDMDMNHIPDAAMTIATAALFAKGTTTLRNIYNWRVKETDRLFAMATELRKVGAEVEEGHDYIRITPPEKLNFAEIATYNDHRMAMCFSLVALSDTPVTILDPKCTAKTFPDYFEQLARISQAA
For the molecule B5, the “complementation condition, C-terminal” value is recorded as “−”.

B6: C166: E. coli EPSPS C-terminal fragment, residue 166 to C-terminus (protein, UniProt P0A6D3 166-427, looked up, fragment)
chain: GSVSSQFLTALLMTAPLAPEDTVIRIKGDLVSKPYIDITLNLMKTFGVEIENQHYQQFVVKGGQSYQSPGTYLVEGDASSASYFLAAAAIKGGTVKVTGIGRNSMQGDIRFADVLEKMGATICWGDDYISCTRGELNAIDMDMNHIPDAAMTIATAALFAKGTTTLRNIYNWRVKETDRLFAMATELRKVGAEVEEGHDYIRITPPEKLNFAEIATYNDHRMAMCFSLVALSDTPVTILDPKCTAKTFPDYFEQLARISQAA
As for B6, the “complementation condition, C-terminal” value is listed as “−”.

B7: C219: E. coli EPSPS C-terminal fragment, residue 219 to C-terminus (protein, UniProt P0A6D3 219-427, looked up, fragment)
chain: HYQQFVVKGGQSYQSPGTYLVEGDASSASYFLAAAAIKGGTVKVTGIGRNSMQGDIRFADVLEKMGATICWGDDYISCTRGELNAIDMDMNHIPDAAMTIATAALFAKGTTTLRNIYNWRVKETDRLFAMATELRKVGAEVEEGHDYIRITPPEKLNFAEIATYNDHRMAMCFSLVALSDTPVTILDPKCTAKTFPDYFEQLARISQAA
Turning to B7, the “complementation condition, C-terminal” value is reported as “−”.

B8: N104: E. coli EPSPS N-terminal fragment, N-terminus to residue 104 (protein, UniProt P0A6D3 1-104, looked up, fragment)
chain: MESLTLQPIARVDGTINLPGSKSVSNRALLLAALAHGKTVLTNLLDSDDVRHMLNALTALGVSYTLSADRTRCEIIGNGGPLHAEGALELFLGNAGTAMRPLAA
For B8, the “complementation condition, N-terminal” value is “−”.

B9: C105: E. coli EPSPS C-terminal fragment, residue 105 to C-terminus (protein, UniProt P0A6D3 105-427, looked up, fragment)
chain: ALCLGSNDIVLTGEPRMKERPIGHLVDALRLGGAKITYLEQENYPPLRLQGGFTGGNVDVDGSVSSQFLTALLMTAPLAPEDTVIRIKGDLVSKPYIDITLNLMKTFGVEIENQHYQQFVVKGGQSYQSPGTYLVEGDASSASYFLAAAAIKGGTVKVTGIGRNSMQGDIRFADVLEKMGATICWGDDYISCTRGELNAIDMDMNHIPDAAMTIATAALFAKGTTTLRNIYNWRVKETDRLFAMATELRKVGAEVEEGHDYIRITPPEKLNFAEIATYNDHRMAMCFSLVALSDTPVTILDPKCTAKTFPDYFEQLARISQAA
On to B9, for which the “complementation condition, C-terminal” value is “−”.

B10: N154: E. coli EPSPS N-terminal fragment, N-terminus to residue 154 (protein, UniProt P0A6D3 1-154, looked up, fragment)
chain: MESLTLQPIARVDGTINLPGSKSVSNRALLLAALAHGKTVLTNLLDSDDVRHMLNALTALGVSYTLSADRTRCEIIGNGGPLHAEGALELFLGNAGTAMRPLAAALCLGSNDIVLTGEPRMKERPIGHLVDALRLGGAKITYLEQENYPPLRLQ
For B10, the “complementation condition, N-terminal” value was “−”.

B11: C155: E. coli EPSPS C-terminal fragment, residue 155 to C-terminus (protein, UniProt P0A6D3 155-427, looked up, fragment)
chain: GGFTGGNVDVDGSVSSQFLTALLMTAPLAPEDTVIRIKGDLVSKPYIDITLNLMKTFGVEIENQHYQQFVVKGGQSYQSPGTYLVEGDASSASYFLAAAAIKGGTVKVTGIGRNSMQGDIRFADVLEKMGATICWGDDYISCTRGELNAIDMDMNHIPDAAMTIATAALFAKGTTTLRNIYNWRVKETDRLFAMATELRKVGAEVEEGHDYIRITPPEKLNFAEIATYNDHRMAMCFSLVALSDTPVTILDPKCTAKTFPDYFEQLARISQAA
Regarding B11, the “complementation condition, C-terminal” value is “−”.

B12: N218: E. coli EPSPS N-terminal fragment, N-terminus to residue 218 (protein, UniProt P0A6D3 1-218, looked up, fragment)
chain: MESLTLQPIARVDGTINLPGSKSVSNRALLLAALAHGKTVLTNLLDSDDVRHMLNALTALGVSYTLSADRTRCEIIGNGGPLHAEGALELFLGNAGTAMRPLAAALCLGSNDIVLTGEPRMKERPIGHLVDALRLGGAKITYLEQENYPPLRLQGGFTGGNVDVDGSVSSQFLTALLMTAPLAPEDTVIRIKGDLVSKPYIDITLNLMKTFGVEIENQ
Turning to B12, the “complementation condition, N-terminal” value is “−”.

B13: N182: E. coli EPSPS N-terminal fragment, N-terminus to residue 182 (protein, UniProt P0A6D3 1-182, looked up, fragment)
chain: MESLTLQPIARVDGTINLPGSKSVSNRALLLAALAHGKTVLTNLLDSDDVRHMLNALTALGVSYTLSADRTRCEIIGNGGPLHAEGALELFLGNAGTAMRPLAAALCLGSNDIVLTGEPRMKERPIGHLVDALRLGGAKITYLEQENYPPLRLQGGFTGGNVDVDGSVSSQFLTALLMTAPL
For the molecule B13, the “complementation condition, N-terminal” value is on record as “−”.

B14: C183: E. coli EPSPS C-terminal fragment, residue 183 to C-terminus (protein, UniProt P0A6D3 183-427, looked up, fragment)
chain: APEDTVIRIKGDLVSKPYIDITLNLMKTFGVEIENQHYQQFVVKGGQSYQSPGTYLVEGDASSASYFLAAAAIKGGTVKVTGIGRNSMQGDIRFADVLEKMGATICWGDDYISCTRGELNAIDMDMNHIPDAAMTIATAALFAKGTTTLRNIYNWRVKETDRLFAMATELRKVGAEVEEGHDYIRITPPEKLNFAEIATYNDHRMAMCFSLVALSDTPVTILDPKCTAKTFPDYFEQLARISQAA
For the molecule B14, the “complementation condition, C-terminal” value is “−”.
